For one substance, Km results are on record in patent US20140359899A1.

This data set has as its system T1, OC[C@H]1O[C@@](CO)(O[C@H]2O[C@H](CO)[C@@H](O)[C@H](O)[C@H]2O)[C@@H](O)[C@@H]1O.
T1 construct: Primers for the full length ORF of AtSWEET11 (AtSWT11FattB1 and AtSWT11attB2) or AtSWEET12; expressed in transfected cells; host or cells: Xenopus oocytes injected with capped cRNA from pOO2-GW
The data set is described as follows: Oocyte uptake assay: [14C]-sucrose uptake in Xenopus oocytes expressing AtSWEET12. Conditions: other: Xenopus oocytes; FIG. 1F. It counts as cell-based, Arabidopsis.

Sequence of AtSWEET12 (Arabidopsis thaliana) (chain, as listed by the source): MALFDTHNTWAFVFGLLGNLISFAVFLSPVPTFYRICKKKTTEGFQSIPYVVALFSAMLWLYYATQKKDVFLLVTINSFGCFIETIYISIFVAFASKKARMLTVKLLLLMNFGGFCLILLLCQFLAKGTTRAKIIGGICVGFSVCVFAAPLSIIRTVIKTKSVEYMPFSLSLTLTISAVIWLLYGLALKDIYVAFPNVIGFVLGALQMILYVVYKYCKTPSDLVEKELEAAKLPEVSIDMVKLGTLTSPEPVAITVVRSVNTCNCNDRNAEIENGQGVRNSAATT

As for AtSWEET12 (Arabidopsis thaliana), the Km (usually the substrate concentration at which the rate is half of its maximum) is 70 mM.
